According to patent publication US20210277137A1 (AbbVie / Abbott, published 2021):
Residue numbers refer to the chain shown, from its start. In names and notes the source's numbering stands.

B1: Humanized muAb9 #1 (antibody, V domains shown)
VH: EVQLQESGPGLVKPSETLSLTCTVSGYSITSNYYWNWIRQPPGKGLEWMGYIRYDGSNNYNPSLKNRITISRDTSKNQFSLKLSSVTAADTAVYYCARLDYWGQGTTVTVSS
VL: DAVMTQTPLSLSVTPGQPASISCRSSQSLENTNGNTFLNWFLQKPGQSPQLLIYRVSNRFSGVPDRFSGSGSGTDFTLKISRVEAEDVGVYFCLQVTHVPFTFGQGTKLEIK
B2: AD164.76.3 (antibody, V domains shown)
VH: DVQLQESGPGLVKPSQSLSLTCSVTGYSITSNYYWNWIRQFPGNKLEWMGYIRYDGSNNYNPSLKNRISITRDTSKNQFFLRLNSVTTEDTATYYCTRLDYWGQGTTLTVSS
VL: B1 VL with S12P, T14S, P15L, Q17D, P18Q, T32S, V56I, V88L, Q105S
notes: mouse hybridoma monoclonal; also called muAb10
B3: Humanized muAb9 #6 (antibody, V domains shown)
VH: B1 VH with T30S, N66S, I68V
VL: B1 VL with F41Y, F92Y
B4: Humanized muAb9 #3 (antibody, V domains shown)
VH: B1 VH with T30S, N66S, I68V
VL: B1 VL
B5: Humanized muAb9 #4 (antibody, V domains shown)
VH: B1 VH
VL: B1 VL with F41Y, F92Y
B6: Humanized muAb9 #2 (antibody, V domains shown)
VH: B1 VH with I68V
VL: B1 VL
B7: AD164.14.6 (antibody, V domains shown)
VH: B2 VH with R82K, T97A
VL: B1 VL with S12P, T14S, P15L, Q17D, P18Q, V88L, Q105S
notes: mouse hybridoma monoclonal; also called muAb9
B8: AD163.7.2 (antibody, V domains shown)
VH: QVQLQQSGPELVKSGASVKISCKASGYTFTDYYINWVKQRPGQGLEWIGWIFPGSGSVYCNEQFKGQATLTVDRSSSTAYMLLSSLTSEDSAVYFCASSLGKFAYWGQGTLVTVSA
VL: DIVMTQSQKFMSTTVGDRVSITCKASQSVVTAVAWYQQKPGQSPKLLIYSASNRYTGVPDRFTGSGSGTDFALTIRTMQSEDLADYFCQQYSSYPYTFGGGTKLEIK
notes: mouse hybridoma monoclonal; also called muAb8
B9: AD163.9.3 (antibody, V domains shown)
VH: QVQLQQPGAELVKPGASVKMSCKASGYTFTSYWITWVKQRPGQGLEWIGEINPGSGSTNYNEKFKSKATLTVDTSSSTAYMQLSSLTSEDSAVYYCARNRGTGDYWGQGTTLTVSS
VL: DVVMTQTPLSLPVSLGDQASISCRSSQSLVHSYGNTYLHWYLQKPGQSPKFLIYKVSNRISGVPDRLSGSGSGTDFTLKISRVEPEDLGVYFCSQSTHVPYTFGGGTKLEIK
notes: mouse hybridoma monoclonal; also called muAb1
B10: AD166.4.4 (antibody, V domains shown)
VH: QVQLQQSGAELMKPGASAKLSCKATGYTFTGYWIQWVKQRPGHGLEWIGEILPGGDHTKYNEKFRGKATFTSDTSSNTVYMQLSSLTTEDSAIYYCARVGGDYWGQGTTLTVSS
VL: B9 VL with H31N, Y33N, G34E, F51L, S57F, I60Y, L67F, P85A, S94F, Y101W
notes: mouse hybridoma monoclonal; also called muAb2
B11: AD163.162.1 (antibody, V domains shown)
VH: QVQLQQPGAELVRPGSSVKLSCKASGYTFTSYWMHWVKQRPIQGLEWIGNIDPSNGETHYNQKFKDKATLTVDKSSSTAYMQLSSLTSEDSAVYYCARERIYYSGSTYDGYFDVWGTGTTVTVSS
VL: QIVLTQSPAIMSASPGEKVTMTCSASSSLSYMHWYQQKSGTSPKRWIYDTSKLASGVPARFSGSGSGTSYSLTISSMEAEDAATYYCQQWSSNPWTFGGGTKLEIK
notes: mouse hybridoma monoclonal; also called muAb6
B12: AD163.27.12 (antibody, V domains shown)
VH: B11 VH
VL: B11 VL with A79G, A82G
notes: mouse hybridoma monoclonal; same VH as muAb6; also called muAb7
B13: Humanized muAb9 A2V (antibody, human IgG1, kappa)
heavy: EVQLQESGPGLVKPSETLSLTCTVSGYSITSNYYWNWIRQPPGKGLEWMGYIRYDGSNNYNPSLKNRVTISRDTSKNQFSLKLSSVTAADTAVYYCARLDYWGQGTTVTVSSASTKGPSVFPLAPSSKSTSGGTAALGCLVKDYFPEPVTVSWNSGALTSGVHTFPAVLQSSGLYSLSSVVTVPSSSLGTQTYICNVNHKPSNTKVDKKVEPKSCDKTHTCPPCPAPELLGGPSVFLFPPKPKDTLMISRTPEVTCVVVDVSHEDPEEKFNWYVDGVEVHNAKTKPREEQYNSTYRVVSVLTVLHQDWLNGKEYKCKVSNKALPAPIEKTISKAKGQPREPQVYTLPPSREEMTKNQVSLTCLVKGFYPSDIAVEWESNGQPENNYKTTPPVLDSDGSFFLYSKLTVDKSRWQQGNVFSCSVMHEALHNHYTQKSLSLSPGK
light: DVVMTQTPLSLSVTPGQPASISCRSSQSLENTNGNTFLNWYLQKPGQSPQLLIYRVSNRFSGVPDRFSGSGSGTDFTLKISRVEAEDVGVYYCLQVTHVPFTFGQGTKLEIKRTVAAPSVFIFPPSDEQLKSGTASVVCLLNNFYPREAKVQWKVDNALQSGNSQESVTEQDSKDSTYSLSSTLTLSKADYEKHKVYACEVTHQGLSSPVTKSFNRGEC
notes: human IgG1 V273E/kappa; also called huAb9 A2V
B14: AD165.1.2 (antibody, V domains shown)
VH: DVQLQESGPGLVEPSQSLFLTCSVTGYSITTNYNWNWIRQFPGNKLEWMGYIRHDGTNNYNPSLKNRISIIRDTPKNQFFLKLNSVTTEDTAIYFCTRLDYWGQGTSVTVSS
VL: DAVMTQTPLSLPVSLGDQASISCRSSQSLENSYGNTFLNWFLQRPGQSPQLLIYRVSNRFCGVPDRFSGSGSGTDFTLKISRVEAEDLGIYFCLQVTHVPYTFGGGTKLEIK
notes: mouse hybridoma monoclonal; also called muAb5
B15: Humanized muAb6 #1 (antibody, V domains shown)
VH: EVQLVQSGAEVKKPGSSVKVSCKASGYTFTSYWMHWVRQAPGQGLEWIGNIDPSNGETHYNQKFKDRATLTVDKSTSTAYMELSSLRSEDTAVYYCARERIYYSGSTYDGYFDVWGQGTTVTVSS
VL: DIQLTQSPSFLSASVGDRVTITCSASSSLSYMHWYQQKPGKSPKRWIYDTSKLASGVPSRFSGSGSGTEYTLTISSLQPEDFATYYCQQWSSNPWTFGGGTKVEIK
B16: Humanized muAb6 #2 (antibody, V domains shown)
VH: B15 VH with A68V, L70I
VL: B15 VL
B17: Humanized muAb6 #3 (antibody, V domains shown)
VH: B15 VH with N61A, K65Q, D66G, A68V, L70I
VL: B15 VL
B18: AD163.10.7 (antibody, V domains shown)
VH: LVQPGGSLSLSCAASGFTFSDYYMSWVRQPPGKALEWLGFIRNKANGYTTEFSASVKGRFTISRDNSQSILYLQMNALRAEDSATYYCARYGGLRQGWYFDVWGTGTTVTVSS
VL: DIQMTQTTSSLSASLGDRVTISCRASQDIRNYLNWYQQKPDGTVKLLIYYTSRLHSGVPSRFSGSGSGTDYSLTISNLEQEDIATYFCQQGKTLPWTFGGGSKLEMK
notes: mouse hybridoma monoclonal; also called muAb4
B19: AD175.14.11 (antibody, V domains shown)
VH: EVQLQQSGPELVKPGASVKISCKASGYTFTDYYMNWVKQSHGKSLEWIGDINPNNGGTSYNQKFKGKATLTVDKSSSTAYMELRSLTSEDSAVYYCARRGGLGRGTYALDYWGQGTSVTVSS
VL: B18 VL with R30S, L46P, S56L, K92N, W96L, G100A, S102T, M106L
notes: mouse hybridoma monoclonal; also called muAb3
B20: CP-870,893 (antibody, human IgG2, kappa, V domains shown)
VH: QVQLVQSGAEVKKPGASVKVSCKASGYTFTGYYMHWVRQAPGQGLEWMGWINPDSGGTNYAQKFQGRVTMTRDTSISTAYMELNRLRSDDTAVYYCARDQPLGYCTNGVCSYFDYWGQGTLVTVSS
VL: DIQMTQSPSSVSASVGDRVTITCRASQGIYSWLAWYQQKPGKAPNLLIYTASTLQSGVPSRFSGSGSGTDFTLTISSLQPEDFATYYCQQANIFPLTFGGGTKVEIKR

Columns and labels:
human CD40 on cells [1] = target: T1, human CD40 on cells (human, UniProt P25942 21-277); assay: cell-based or functional assay
[2] = target: T2, CD40-human Fc (huFc) fusion protein (Creative BioMart) (human, UniProt P25942 21-193); assay: ELISA: CD40-huFc mixed with antibody, binding to plate-bound HA-tagged CD40L; further: test concentration or dose not given here
T2 construct: bought; also called CD40-huFc; not shown: human Fc
Excerpt: After development with TMB (3, 3′, 5, 5′-tetramethylbenzidine) substrate, the plates were read at OD₄₅₀.

human CD40 on cells [3] = target: T1, human CD40 on cells; assay: cell-based or functional assay; remark: listed apart in the source
[4] = target: soluble form of the extracellular domain of human CD40 (Creative BioMart, cat #CD402221H) (human, UniProt P25942 21-193); assay: SPR (BIAcore T200); antibody captured by anti-Fc; soluble CD40 injected
Experimental: (§1) CD40 binding kinetics was analyzed by BIAcore assay with a BIAcore T200 instrument. Briefly, a goat anti-mouse Fc antibody (Pierce, cat #31170) or goat anti-human Fc (Pierce, cat #31125) was immobilized on a CM5 sensor chip, followed by capture of the anti-CD40 antibodies on the test surface.

[5] = target: T3, soluble cynomolgus (cyno) CD40 (Creative BioMart, cat #CD40-8824C) (cynomolgus, UniProt G7PG38 21-193); assay: as above
T3 construct: extracellular domain; also called Cynomolgus CD40
Experimental: as §1

human CD40 on cells [6] = target: T1, human CD40 on cells; assay: cell-based or functional assay; remark: listed apart in the source
Wherever moDC activation (IL-12p70, pg/mL) is given: test concentration or dose not given here.

soluble form of the extracellular domain of human CD40 (Creative BioMart, cat #CD402221H), sequence (P25942 21-193 limits assumed): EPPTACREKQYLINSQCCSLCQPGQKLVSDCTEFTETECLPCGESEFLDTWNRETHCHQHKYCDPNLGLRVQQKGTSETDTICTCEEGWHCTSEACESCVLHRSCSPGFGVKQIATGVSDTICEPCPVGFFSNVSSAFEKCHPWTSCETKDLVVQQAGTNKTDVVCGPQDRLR
T2 sequence (P25942 21-193 limits assumed): as above
T1 sequence (P25942 21-277 limits assumed): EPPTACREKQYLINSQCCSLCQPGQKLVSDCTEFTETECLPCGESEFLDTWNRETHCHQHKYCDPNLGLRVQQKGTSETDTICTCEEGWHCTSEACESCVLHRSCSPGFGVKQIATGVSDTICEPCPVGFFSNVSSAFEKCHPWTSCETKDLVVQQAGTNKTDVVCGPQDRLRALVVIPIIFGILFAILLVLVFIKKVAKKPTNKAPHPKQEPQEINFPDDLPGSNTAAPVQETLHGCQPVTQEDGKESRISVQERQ

Row | Binder | Maximal activation (OD655) in HEK293 blue CD40 NFκB reporter cells (human CD40 on cells [1]) | NFκB activation EC50 (SEAP, OD655) in HEK293 blue CD40 NFκB reporter cells (human CD40 on cells [1]) | OD450 Ratio [2] | OD450 with anti-CD40 antibody [2] | moDC activation (IL-12p70, pg/mL) (human CD40 on cells [3]) | other results
1 | B1 | 0.26 OD655 | 0.19 µg/mL | – | – | – | –
2 | B2 | – | – | 2.63 ratio to isotype control | 2.11 OD450 | 770 pg/mL | –
3 | B3 | 0.54 OD655 | 5.95 µg/mL | – | – | – | –
4 | B4 | 0.27 OD655 | 0.18 µg/mL | – | – | – | –
5 | B5 | 0.61 OD655 | 5.55 µg/mL | – | – | – | –
6 | B6 | 0.27 OD655 | 0.29 µg/mL | – | – | – | –
7 | B7 | – | – | 2.35 ratio to isotype control | 1.88 OD450 | 878 pg/mL | –
8 | B8 | – | – | 0.08 ratio to isotype control | 0.066 OD450 | 905 pg/mL | –
9 | B9 | – | – | 2.22 ratio to isotype control | 1.78 OD450 | 2220 pg/mL | –
10 | B10 | – | – | 1.28 ratio to isotype control | 1.02 OD450 | 0 pg/mL | –
11 | B11 | – | – | 0.57 ratio to isotype control | 0.455 OD450 | 2160 pg/mL | –
12 | B12 | – | – | 0.41 ratio to isotype control | 0.328 OD450 | 1510 pg/mL | –
13 | B13 | – | – | – | – | – | Kd [4]: 170 nM; koff [4]: 0.26 s⁻¹; kon [4]: 1.5e+06 M⁻¹ s⁻¹; Kd [5]: 140 nM; koff [5]: 0.27 s⁻¹; kon [5]: 1.9e+06 M⁻¹ s⁻¹
14 | B14 | – | – | 1.24 ratio to isotype control | 0.989 OD450 | 720 pg/mL | –
15 | B15 | 0.26 OD655 | 1.09 µg/mL | – | – | – | –
16 | B16 | 0.2 OD655 | 1.21 µg/mL | – | – | – | –
17 | B17 | 0.32 OD655 | 4.31 µg/mL | – | – | – | –
18 | B18 | – | – | 1.68 ratio to isotype control | 1.34 OD450 | 1320 pg/mL | –
19 | B19 | – | – | 0.09 ratio to isotype control | 0.068 OD450 | 0 pg/mL | –
20 | B20 | – | – | – | – | – | NFκB activity EC50; HEK293 blue CD40 reporter cells co-cultured with CHO cells expressing CD16F (human CD40 on cells [6]): 0.03 nM; NFκB activity EC50; HEK293 blue CD40 reporter cells co-cultured with CHO cells expressing CD16V (human CD40 on cells [6]): 0.02 nM; NFκB activity EC50; HEK293 blue CD40 reporter cells co-cultured with CHO cells expressing CD32a (human CD40 on cells [6]): 0.02 nM; NFκB activity EC50; HEK293 blue CD40 reporter cells co-cultured with CHO cells expressing CD32b (human CD40 on cells [6]): 0.02 nM; NFκB activity EC50; HEK293 blue CD40 reporter cells co-cultured with CHO cells expressing CD64 (human CD40 on cells [6]): 0.02 nM; NFκB activity EC50; HEK293 blue CD40 reporter cells co-cultured with FcγR negative CHO cells (human CD40 on cells [6]): 0.03 nM
